In assay [1] the target is T1, α3β1 integrin (UniProt P26006 33-1051; P05556 21-798).
T1 construct: whole, on cells; Never used as a purified protein; It is always the receptor on HCE cells in adhesion assays; also called integrin α3β1; functional receptor for βig-h3
Nature of the assay: HCE cell adhesion and adhesion inhibition assays. As to the method: (§1) Function-blocking experiments using monoclonal antibodies against various integrin subunits were carried out to examine whether α3β1 integrin, known as a surface receptor of βig-h3, would be involved in the cell adhesion mediated by the synthetic peptides EPDIM and NKDIL. HCE was preincubated at 37° C. for 30 min in the presence of each of the monoclonal antibodies (5 μg/ml) against different types of integrins. The preincubated cells were transferred onto plates precoated with 100 μM EPDIM or 100 μM NKDIL and then incubated further at 37° C. for 1 hour, followed by the quantitative analysis with hexosaminidase substrate as in Example 1-2.

Assay [2] concerns the target T1, α3β1 integrin. Kind of assay: HCE cell adhesion to coated peptide (100 µM) with function-blocking anti-integrin mAbs. As for the experimental part: as §1

T1 sequence (P26006 33-1051, chain 1 of 2): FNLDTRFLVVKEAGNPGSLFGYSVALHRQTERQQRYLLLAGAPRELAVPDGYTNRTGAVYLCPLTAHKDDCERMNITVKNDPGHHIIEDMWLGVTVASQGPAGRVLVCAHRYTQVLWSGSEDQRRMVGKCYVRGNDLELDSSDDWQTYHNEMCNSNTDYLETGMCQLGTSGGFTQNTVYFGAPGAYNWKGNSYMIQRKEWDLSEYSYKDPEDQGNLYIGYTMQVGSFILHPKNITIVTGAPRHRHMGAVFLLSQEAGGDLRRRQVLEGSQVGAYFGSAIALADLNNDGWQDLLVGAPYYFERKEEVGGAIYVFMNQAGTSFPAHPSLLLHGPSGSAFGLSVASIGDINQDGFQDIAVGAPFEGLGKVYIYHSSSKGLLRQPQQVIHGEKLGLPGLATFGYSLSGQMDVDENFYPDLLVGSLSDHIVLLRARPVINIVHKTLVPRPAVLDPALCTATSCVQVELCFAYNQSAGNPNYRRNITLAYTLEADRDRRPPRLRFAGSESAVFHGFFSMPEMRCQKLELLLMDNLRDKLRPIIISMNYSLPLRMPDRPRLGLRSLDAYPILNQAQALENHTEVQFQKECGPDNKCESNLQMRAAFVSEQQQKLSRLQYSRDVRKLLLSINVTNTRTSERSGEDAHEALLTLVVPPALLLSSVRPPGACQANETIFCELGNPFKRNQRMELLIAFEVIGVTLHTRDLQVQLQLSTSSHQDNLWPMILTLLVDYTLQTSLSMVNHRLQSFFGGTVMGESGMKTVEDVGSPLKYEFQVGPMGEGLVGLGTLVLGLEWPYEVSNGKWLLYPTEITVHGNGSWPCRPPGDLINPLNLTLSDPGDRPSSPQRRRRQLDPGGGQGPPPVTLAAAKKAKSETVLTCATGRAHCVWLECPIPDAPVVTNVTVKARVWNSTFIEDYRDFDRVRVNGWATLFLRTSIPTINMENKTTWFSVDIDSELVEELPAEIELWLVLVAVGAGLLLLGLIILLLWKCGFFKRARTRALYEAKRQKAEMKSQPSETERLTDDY
T1 sequence (P05556 21-798, chain 2 of 2): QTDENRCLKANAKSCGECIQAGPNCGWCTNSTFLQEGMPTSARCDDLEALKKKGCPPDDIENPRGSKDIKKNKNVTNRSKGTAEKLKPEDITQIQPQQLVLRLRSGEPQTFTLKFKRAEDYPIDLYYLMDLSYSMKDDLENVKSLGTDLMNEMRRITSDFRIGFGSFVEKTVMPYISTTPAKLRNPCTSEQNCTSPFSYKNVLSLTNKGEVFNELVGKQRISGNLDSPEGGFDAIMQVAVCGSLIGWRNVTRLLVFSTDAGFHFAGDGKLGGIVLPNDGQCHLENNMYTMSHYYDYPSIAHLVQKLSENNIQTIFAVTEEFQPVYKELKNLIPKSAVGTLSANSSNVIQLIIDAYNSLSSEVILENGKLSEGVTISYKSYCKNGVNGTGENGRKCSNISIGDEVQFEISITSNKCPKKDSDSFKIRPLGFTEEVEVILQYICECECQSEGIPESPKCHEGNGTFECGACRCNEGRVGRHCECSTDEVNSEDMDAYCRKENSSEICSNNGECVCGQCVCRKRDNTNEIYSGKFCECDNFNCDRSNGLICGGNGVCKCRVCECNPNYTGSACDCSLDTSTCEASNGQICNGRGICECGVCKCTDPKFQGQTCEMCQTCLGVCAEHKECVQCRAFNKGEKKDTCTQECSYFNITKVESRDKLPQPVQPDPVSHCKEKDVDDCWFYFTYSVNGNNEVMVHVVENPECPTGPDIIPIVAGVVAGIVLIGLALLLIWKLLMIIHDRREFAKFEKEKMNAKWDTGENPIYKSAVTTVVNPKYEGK

B1: synthetic peptide EPDIM (peptide)
peptide: EPDIM
notes: Made by solid phase synthesis; also called 4th fas-1 domain-derived synthetic peptide; EPDIM (a.a. 615-619)
Turning to B1, the binding result in the assay with α3β1 integrin [1] is “binds”.

B2: synthetic peptide NKDIL (peptide)
peptide: NKDIL
notes: Made by solid phase synthesis; also called 2nd fas-1 domain-derived synthetic peptide; NKDIL (a.a. 354-358)
On to B2, for which the binding result with α3β1 integrin [2] is on record as “binds”.

For the origin of these results see patent US20030175885A1 (REGEN BIOTECH, published 2003).
